Experimental data published in patent publication US20210388087A1 (Chugai, published 2021).
Residue numbers refer to the chain shown, from its start.

B1: CE115HA000 S52cY (antibody, human IgG1, kappa, L234A L235A, N297A, name in Kabat numbering)
heavy: QVQLVESGGGVVQPGRSLRLSCAASGFTFSNAWMHWVRQAPGKGLEWVAQIKAKYNNYATYYAESVKGRFTISRDDSKNSLYLQMNSLKTEDTAVYYCRYVHYGAYYGVDAWGQGTTVTVSSASTKGPSVFPLAPSSKSTSGGTAALGCLVKDYFPEPVTVSWNSGALTSGVHTFPAVLQSSGLYSLSSVVTVPSSSLGTQTYICNVNHKPSNTKVDKKVEPKSCDKTHTCPPCPAPEAAGGPSVFLFPPKPKDTLMISRTPEVTCVVVDVSHEDPEVKFNWYVDGVEVHNAKTKPREEQYASTYRVVSVLTVLHQDWLNGKEYKCKVSNKALPAPIEKTISKAKGQPREPQVYTLPPSRCELTKNQVSLSCAVKGFYPSDIAVEWESNGQPENNYKTTPPVLDSDGSFFLVSKLTVDKSRWQQGNVFSCSVMHEALHNHYTQKSLSLSPDYKDDDDK
chain: EPKSSDKTHTCPPCPAPELLGGPSVFLFPPKPKDTLMISRTPEVTCVVVDVSHEDPEVKFNWYVDGVEVHNAKTKPREEQYNSTYRVVSVLTVLHQDWLNGKEYKCKVSNKALPAPIEKTISKAKGQPREPQVCTLPPSRDELTKNQVSLWCLVKGFYPSDIAVEWESNGQPENNYKTTPPVLDSDGSFFLYSKLTVDKSRWQQGNVFSCSVMHEALHNRYTQKSLSLSP
light: DIVMTQSPLSLPVTPGEPASISCRSSQSLVHSNRNTYLHWYQQKPGQAPRLLIYKVSNRFSGVPDRFSGSGSGTDFTLKISRVEAEDVGVYYCGQGTQVPYTFGQGTKLEIKRTVAAPSVFIFPPSDEQLKSGTASVVCLLNNFYPREAKVQWKVDNALQSGNSQESVTEQDSKDSTYSLSSTLTLSKADYEKHKVYACEVTHQGLSSPVTKSFNRGEC
notes: one-arm antibody
B2: CE115HA000 S62D (antibody, human IgG1, kappa, L234A L235A, N297A, name in Kabat numbering)
heavy: B1 heavy with Y55S, S65D
chain: B1 chain
light: B1 light
notes: one-arm antibody
B3: CE115HA000 S62E (antibody, human IgG1, kappa, L234A L235A, N297A, name in Kabat numbering)
heavy: B1 heavy with Y55S, S65E
chain: B1 chain
light: B1 light
notes: one-arm antibody
B4: CE115HA000 S62K (antibody, human IgG1, kappa, L234A L235A, N297A, name in Kabat numbering)
heavy: B1 heavy with Y55S, S65K
chain: B1 chain
light: B1 light
notes: one-arm antibody
B5: CE115HA000 S62P (antibody, human IgG1, kappa, L234A L235A, N297A, name in Kabat numbering)
heavy: B1 heavy with Y55S, S65P
chain: B1 chain
light: B1 light
notes: one-arm antibody
B6: CE115HA000 S74A (antibody, human IgG1, kappa, L234A L235A, N297A, name in Kabat numbering)
heavy: B1 heavy with Y55S, S77A
chain: B1 chain
light: B1 light
notes: one-arm antibody
B7: CE115HA000 S74P (antibody, human IgG1, kappa, L234A L235A, N297A, name in Kabat numbering)
heavy: B1 heavy with Y55S, S77P
chain: B1 chain
light: B1 light
notes: one-arm antibody
B8: CE115HA000 S77T (antibody, human IgG1, kappa, L234A L235A, N297A, name in Kabat numbering)
heavy: B1 heavy with Y55S, S80T
chain: B1 chain
light: B1 light
notes: one-arm antibody
B9: CE115HA000 T28D (antibody, human IgG1, kappa, L234A L235A, N297A, name in Kabat numbering)
heavy: B1 heavy with T28D, Y55S
chain: B1 chain
light: B1 light
notes: one-arm antibody
B10: CE115HA000 T28S (antibody, human IgG1, kappa, L234A L235A, N297A, name in Kabat numbering)
heavy: B1 heavy with T28S, Y55S
chain: B1 chain
light: B1 light
notes: one-arm antibody

biological target: T1, CD3 epsilon homodimer protein (UniProt P07766 23-126); assay: SPR, CD3 epsilon homodimer on chip, one-arm antibody as analyte;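 further: surface plasmon resonance at 25 °C with CD3 epsilon homodimer amine-coupled to a CM4 sensor chip, antibody injected as analyte, HBS-EP+ as running buffer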
T1 construct: also called CD3 (CD3 epsilon)
T1 sequence (P07766 23-126): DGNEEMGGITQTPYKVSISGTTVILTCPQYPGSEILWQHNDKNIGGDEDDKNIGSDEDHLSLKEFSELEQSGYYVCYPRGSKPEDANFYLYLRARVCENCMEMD

B1 and B2 are the same in “KD ratio (KD of CE115HA000/KD of altered form)” value (shortened to “KD ratio”): 0.87 for the first, 0.87 for the second.

Going from B3 to B4, the “KD ratio” value rises from 0.82 to 0.99.

B5 and B6 are the same in “KD ratio” value: 0.77 for the first, 0.77 for the second.

First: B7
Second: B8
The “KD ratio” value of the first is lower: 0.7 for the first, 0.83 for the second.

Compared with B9, B10 is lower in “KD ratio” value: 0.93 for the first, 0.79 for the second.
